Assays:
[1] = molecular target: TrkA-ΔeJTM (rat) (UniProt P35739); test: flow cytometry on cells
[2] = molecular target: the molecule itself; test: solution NMR
[3] = molecular target: the molecule itself; test: cross-linking
[4] = molecular target: rat TrkA with an N-terminal HA tag (wild type) (rat, UniProt P35739 33-799); test: flow cytometry on cells

biotinylated NGF (nerve growth factor) (from UniProt P01139 122-241) (ligand)
Kd [1]: 0.76 µM

B1: TrkA-eJTM-TMD (D380-K447 of human TrkA) (domain or fragment, UniProt P04629 380-447, looked up)
chain: DNPFEFNPEDPIPVSFSPVDTNSTSGDPVEKKDETPFGVSVAVGLAVFACLFLSTLLLVLNKCGRRNK
stoichiometry N [2]: 2

B2: TrkA-eJTM-TMD-K410C (domain or fragment, human, UniProt P04629 380-447, looked up)
chain: DNPFEFNPEDPIPVSFSPVDTNSTSGDPVECKDETPFGVSVAVGLAVFACLFLSTLLLVLNKCGRRNK
modifications: also: disulfide between C410 of two chains in the cross-linked state (dimer)
stoichiometry N [3]: 2

B3: biotinylated NGF (nerve growth factor) (ligand, UniProt P01139 122-241, looked up)
chain: SSTHPVFHMGEFSVCDSVSVWVGDKTTATDIKGKEVTVLAEVNINNSVFRQYFFETKCRASNPVESGCRGIDSKHWNSYCTTTHTFVKALTTDEKQAAWRFIRIDTACVCVLSRKATRRG
modifications: biotin (EZ-Link Sulfo-NHS-Biotin reagent; sites not stated)
Kd [4]: 0.0044 µM

Source: paper PMC9117555 (iScience, 2022)
